In the supplement of paper PMC12636428:

System: Saccharomyces cerevisiae
Assay: transcriptional activation domain activity (GFP:mCherry ratio, weighted mean of sorted bins, harmonized to initial dataset scale) (arbitrary fluorescence ratio units); higher = stronger transcriptional activation
Settings: beta-estradiol 1 µM; induction time 4 h
Method in brief: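 For this assay, yeast diploids with a GFP reporter carried barcoded protein tiles at URA3, each fused to an estradiol-inducible synthetic transcription factor. Induction was a 1:5 dilution into SC with 1 uM beta-estradiol for 4 hours at 30 °C, followed by sorting into 8 bins by GFP:mCherry ratio and barcode sequencing. Tiles under 50 reads were dropped, and activation activity was calculated as the read-weighted mean of bin median fluorescence, averaged across barcodes and linearly mapped onto the initial dataset scale.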

Sequence | transcriptional activation domain activity
GFRFAVAVIDNIQTMKHETMGSYVTLIMNMHITQAVAVWFYSCIFTFKLGQAI | 62500
QPSQVPQEDQPEHEPERKRRPGRPRGSKNRKPRADSAKQPQQQQQQQQQPHPQ | 59500
LQQVCNVLPSFEQSSKIITDFFNTELETNEVSEVLDKTKIINDFTSSFLPSDE | 50400
MAAAPAAKACAQCNKAETVSGGSDGEEGSSNLHPCNMCKSVLYCSRDCKKAHG | 8830
LWYRFQVVMIRRYHFHFHLLGYRMTYLRFIQFLNIWYFFIAIACLLFIIVIGA | 46300
KISALCCVLSVFKIDDLVNDPILNKVLHLNNIYLDVLISLILRNNQPTIELMV | 57900
LADYMCDYSGSLIGKHFKTLAQIMPFAIQDLVPSSVQAAWLLIGRLVVLLWVT | 52900
ITALVIFWSIPVAFVGSLSNLDSLTNKVHFLRFLNHLPKKLKGLVTSLLPTIL | 34700
AQKVKNESDTDERPAPVKKGRKAATSKVKDESEDEAPAPAPAKRGRRAAAVKA | 47500
ETVLKDLKSNQNIDTTVQKLFANCLFYARRIALIHPNLTSIKALLLLMVALEC | 81600
GTGGLSELRDAFDDSKASYGYARVTYSNDKESQREKFILVVWIGSGCKVMRKG | 36600
DVVDHSGDLFIRCNEIFGRQCIRNYIPSDPIWLIPLLGLLHRRLMYKVRLIYP | 71700
LIFSLKVLVMLICIIMIEFYITYAVAVGYIYAVAILEPFRPQLAVAFTWIRPV | 66600
IARADRTSPNDGGVALKKHVVVFASRPGLGLLIAAYLHKNLRSDWNIQLILGC | 66700
TDILKFWHLVVHNGMLERAKGLVSITLTSDTRFVFKAISWRLVMLPRLKYLAL | 76100
METATPPQPKKGRRGNPKTRTGCVTCKMRRVKCDEAKPQCKRCISTGRTCDGY | 15500
SYWLTIQRYGGWFPNRVQSSSTSFSVFLHFSNPFWLHGWWLLCCLLRLASFVL | 79900
IHCLDSLFLLYMLTIFYLLWYSSLIFPLWCMISLYYFIVLSSTSLLGLSFISL | 71500
MADEEGASPRELILEACRRNNTSLLEETLADLASSASKAKQDPTGYVAKTLNE | 42600
RRTPFLGVGRSEGKMRLEKFVDEIGQQREDGTDEFLVRGSKEEKTDVVTAVNH | 9610
MEQTLATNQSLQPVKRVACNRCRTQKLKCNPSGEGRGSSSKCVRCAKAGTDCT | 38900

Sequence | transcriptional activation domain activity
PSGSPLTPSSGKGGRSASLGDAESNKTGEPYGPHSGKAYFEVCVNVGKHAIRL | 37500
MVLLTTLSKKTTIVTVLCSTVINMGKFGFTRHNHRCMRTGALLCLLLFLAYHF | 42800
EAERERLEREVEAENVRKAEEERKEKERLVKEARERAAREAAEREAAAAAAAA | 52700
HPLSWAKFALVMGMLSSLGVLVISTYSVSLSILQFARPLQYIPRFLWTIATLV | 34400
LQQLLLRDYFKYFIKVFQDLSTYERKSYFVFRQMAYAIISIAQGRGCIEFQCH | 43100
TTLTEKGSQVMEKNMDQLDSVHNLNDDDLQQLLEDLGNIDHSDEKLWKEITDQ | 93200
KLGPTPQCLDGFFFFSLLALASLHPVSPCLLFFFFFLLWFPSSFFWPSVLQVQ | 62500
MAFGAVLGLFICDADKVVRADGSRIILMKHPSWKTEIVGLWQTLIAEPWIIML | 51400
YINCGIKMFDPSSIITRRYIRMWPRKQANRVLGMLDKMSQSGGFTKVFFRLLY | 58000
DLHLICNMVNGSTTFHSGESWTPVCLPRFNSKGFLHAYVCFVAKETCLVLISP | 30300
KYLIQSLILYPVPLLQVIITYFVQIKRYDISTVVGCSLLNVYYPNWMFLVFFL | 58800
LHRLHLARVTVDKEGKLVSTTNMTILNLWLVWRGPMREDRLTIEITLFQAFVG | 26400
HAQGEGEYKAAQAEGYAEGTQDRFGGKKDAVIGALTGDRKQEASGTLIPRLKL | 34400
EEAAVESEAPKKKGRAKRVKPEPEVDDEPAVEQPKKKGRVKKAKVEPEPEADE | 46900
IYAYRESWGIDGAVFCKSWMLYWLLMDIHWQVMETLIACYIPMQFSPFFVFPW | 61700
MALPLHFRYVSVTFIFLASFFWPVGFFSFFSLFFPATNSFLLFLSAFFRLVLF | 54100
MRSMKRTFFFFFLVFDLRYYSVLYYILYLYPFPFFLFLFIFYFPLFLFLSTAS | 54500
CKVHAWLVGLGDVPPREMLQGLGRSLLVRSVVLSCHCLGRMSFVICIHAVHIM | 42700
FHAWVSHIVQLNLFGLLSQTLMLIMFKLDVGTYFFLNDVILCKVYVFSLFVTL | 65400
MIERCLMMGPSLGLYVFDLFLLEVGYLAFYAHFNLFSMFAYVFPFIPLVGIRC | 41500
AAPVAEAAPATEAAPASEPSTEAEVPKEEKTEDKKEEKAPKSPKIGRRLSSRV | 17000

Sequence | transcriptional activation domain activity
MSLFMLRTLPSFVCSSFCAMLHFCCSYSLLFYYWALSLPRWLPIPSGFIPIAF | 60200
RLEKQGWFAYIKEFRIFLPCLWPTGSIRGKLCLVVLILDLVINRFLRVLTPRQ | 59800
LNYRKDIDAWHKSLMGTLARGPTLWTFWILSCLDKECFWNWQCYLGYMWPGLF | 72100
GQSGLGLEFNLPDFPLISIIFLIFFITLGLLWLVIVYLANFPDAFTLPVWLWH | 29500
MRELFIFILFLFHFYPYSYFNYYIFFSFSYFLFRYFVSIIIIFFLIQVVFGLV | 101000
SGLVIIFFMITRYFTATAEHLDHLSRCKVHNVPPYSYVFWICILGLELLLCSL | 48600
STTRQQRASLPLIHDIESFANDSVMANPLSDSASFLSEENEDDAFGALNYNSL | 51500
EFEVDSIDELVLILKESEQSDMLRRIGYCRKRMMSLLRLLVTKVDVVKTITKR | 38100
TRNSCVKIEKEDSLTNLNEIDFTNMFCNDNFIQNYNQGLMELLTEPTPGPSSS | 64700
EAGAEEAAAGAGGRQEAASVEEAAREAARRRQQAEAGRGRRRRQPAGAEEAAE | 33300
SHNTHTLSLSLPFPSYSSYSDLIFLFLFLLLFFFFLFLFLFLFLFLFLFSLPF | 34100
RNLGKLCSLHIEIRDPDLHRWNLVTLILVVHTLKSPFLERVCISFATYANIYG | 42300
YLMHGLVLFSIVPSVFIPIYEYHQLSYIAASMICAFIYIIFAVICGWLFWWTV | 40600
IPYVAQEYGFDYELVTYKWPSWLRAQKEKQRVIWAYKILFLDVLFPLDLKKVI | 62100
PAAATPAVSIGLIYLIIMAFFSFSFFLPIHMKYIQPQGHPPLHFWQLIIWRWL | 52700
VAAFAVFCSIEARGSLYVFSVDAVKRVGRRIKHFWHGVWTVLRTAVLLCTCGR | 77400
QARQSKEPAMSQKDLATKVNEKQSVINDYESGRAVPNQQVLSKLERALGVKLR | 36800
MRKTCRFICNVTRMRTVWIKALERVCARHGVFKPTFPLQRMSILDLEYASLGP | 52200
GRRRVWTSLLDRGAGGEGGAGYVCGVTIDEGSNISGDHIQSTCILVDEYCELC | 74500
ESEVAASENGKGKKEEEEKKRKKGLASTRQRNAAGKQSSSSKEEGKGARAYRS | 26100
MYILILIFFLSFFLSFLNGSILYLGIVLLPCAYRRVYTVVCLVFTIQIVLRIK | 61400

Sequence | transcriptional activation domain activity
MLISLLVRLGLDIFMHLYMLLLHISQFSDLLHTRSFLLILFLISGASKRLFFF | 51900
KAFRLVHGILQRSHPRTLDRLFSSMLWLLHNGLTEVALLLRDYIRSLSIRLTS | 53000
PFLFPSLFYSQYHTIPFSFSCHFIPLSFSFPSFYSGSPIPFPFLFSSSYLFLF | 58300
ILTILYKSNAVFFLEWMVFVAYQIFNLFAWVFNCWGKILPKVGSFFLYVSLVS | 63000
MPPVAKQKRSAADRAKGASRAKSGCYTCRIRRKKCDEERDEHDHCRTCTRLRL | 23700
LNWYWLTTTMYFLYGESMLFYFKHIVLVGSVLTPLATHHRFISFTLYIFGFIF | 42000
TLTSPQGSDLASNSATQYKPDLEDFLMQNSNFNGLMINPSSLVEVVGGYNDPN | 83200
MQIVLYLHCKVCFIYFHCLLLDFRSFLHIQRPQEPWIAYIFPTTACVSPQTRR | 55300
VLVVVVALPVVAVMVIMVVVVVVVVVVAIIGGGGWWMWLGLWLRLLIEMDVGA | 32900
MLLTLLLLYILRRCAHTSYIFFSHSGFDFGHLIWGWVSCRLLTFWFLLYSSLL | 33100
MLCADLFFRFVLVKILVFILYDYGRGECDIVIMLVFFFFFPPPPPFFSFFFLF | 65300
EGSSSGEEESSEEEEAAPRREDAAAARQKAADEMIEEQIKRDLAARAAGKKHW | 30100
KVEIRERDARSVVKLRSGANVPVTESTHGLDGGTGQDVHILVAQTKSKKFNRH | 49800
GTSGTSVASRPSITPRAFGSSRSSRPSARSGSPSSRTAPSTPAPASSTRRTRP | 31100
MAITHAALPPMCRISLIRVWIETMLYGFNCVMYGLCMFIPVEGRLLLCWMLIV | 50700
YISHSRCLLVFPVLPFFVHYLLFVFSFALLQIIALEILSLVLFVLDLLSLFPH | 32800
CSCSAGTRTSSSASSSAWRGASSSSSSRCSATRSSIARSRRTRSSCCARTRTC | 36200
CDLQQSHYTPWRILFGLREPLVSAMNYLITYIPRGESSVIIGIRTFVLFSLCF | 37900
MPTPGLDHSLQMMPDGNSGVNPSLLGDFDLFSASAYQAELDYLSFPFMDSFLA | 140000
EKEGKRRSLQKASTSKASSKTLHFMECKVVPEQPLLRIRWSSLTHGALMLYNG | 49300
